Publication PMC4900146 (Biochemistry, 2016)

Target: calmodulin (full-length wild-type CaM) (human, UniProt P0DP23 1-149)
Assay: circular dichroism

binding result: binds
B1: pCaN, peptide encompassing the CaM-binding domain of calcineurin A (residues 391-414) (peptide)
peptide: not shown
